Source: publication PMC4993455 (PLoS ONE, 2016)

Legend:
[1] = target: the molecule itself; assay: SEC; analytical gel filtration of nuclear fractions (100 μl) of HEK 293T cells overexpressing HA-PDRG1, FLAG-MATα1 or both on Superose 12 10/300 GL; fractions analysed by dot-blot
[2] = target: T1, recombinant methionine adenosyltransferase α1 (MATα1) (rat, UniProt P13444 1-397); assay: SEC; equimolar purified recombinant MATα1 or MATα2 and GST-PDRG1 incubated 1 hour at 4°C, then Biogel A column (1.5 x 90 cm) in 50 mM Tris/HCl pH 8, 10 mM MgSO4, 50 mM KCl at 4°C; both proteins detected in the pooled activity peaks by Coomassie staining and/or western blotting; settings: both partners purified
T1 construct: rat MATα1, pSSRL-T7N containing the rat Mat1a ORF; also called pSSRL-T7N; MATα1 homo-oligomers; source: E. coli BL21(DE3) Codon Plus; soluble extract (pull-down)
T1 sequence (P13444 whole entry): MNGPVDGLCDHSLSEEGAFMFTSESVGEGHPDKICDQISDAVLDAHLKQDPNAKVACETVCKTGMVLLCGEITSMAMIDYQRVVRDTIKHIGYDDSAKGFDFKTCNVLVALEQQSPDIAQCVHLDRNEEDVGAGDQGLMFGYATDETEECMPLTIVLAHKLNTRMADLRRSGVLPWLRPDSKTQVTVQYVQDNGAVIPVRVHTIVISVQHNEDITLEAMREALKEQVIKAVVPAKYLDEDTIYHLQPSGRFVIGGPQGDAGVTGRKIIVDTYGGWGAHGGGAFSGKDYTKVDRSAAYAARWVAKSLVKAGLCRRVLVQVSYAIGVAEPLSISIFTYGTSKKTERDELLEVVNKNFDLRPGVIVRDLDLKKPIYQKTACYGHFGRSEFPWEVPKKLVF

FLAG-MATα1, sequence (P13444 whole entry): as above

| Binder | stoichiometry N [1] | binding result [2] |
| --- | --- | --- |
| HA-PDRG1 (natural protein, residues between the HA tag and PDRG1; rat PDRG1, full ORF (402 bp); also called pHA-PDRG1; HA-tagged PDRG1; source: CHO, HEK 293T or COS-7 cells, transiently transfected; in total lysate, nuclear or cytosolic fractions; not shown: HA, N-terminal, kept) not shown | 6 |  |
| FLAG-MATα1 (enzyme, rat MATα1, pFLAG-MAT containing the rat Mat1a ORF; also called pFLAG-MAT; source: CHO, HEK 293T or COS-7 cells, transiently transfected; in total lysate, nuclear or cytosolic fractions) not shown | 4 |  |
| GST-PDRG1 (natural protein, 9 amino acid linker between GST and PDRG1; rat PDRG1, full ORF (402 bp) in pGEX-5X-1; also called pGEX-PDRG1; tagged-PDRG1; source: E. coli BL21(DE3) Codon Plus; soluble extract loaded on Glutathione-Sepharose (pull-down); purified on Glutathione-Sepharose 4B, eluted with 20 mM GSH (gel filtration, activity); not shown: GST, N-terminal, kept) not shown |  | binds |
